13 sequences from the Immune Epitope Database (IEDB) can be followed below.

In experiment [1] the target is HLA-B*27:05. Description: IEDB peptide-MHC binding, purified MHC/competitive/fluorescence; filed as Kd, often an IC50 or EC50 that approximates it; ≥ and ≤ were set here for values at or beyond the usual limits of such assays.
For experiment [2], the target named is HLA-B*40:01. The description is as above.
The next experiment concerns the target HLA-B*58:01. Description: IEDB peptide-MHC binding, purified MHC/direct/fluorescence; filed as Kd, often an IC50 or EC50 that approximates it; ≥ and ≤ were set here for values at or beyond the usual limits of such assays.
In experiment [3] the target is HLA-B*27:05. The description is as above.
Another experiment deals with HLA-B*08:02. The experiment is described as above. To be noted: source organism: Rickettsia sibirica 246.
In a further experiment the target is HLA-A*02:01. Described as above.
Experiment [4] deals with HLA-A*31:01. The description is as above.
The target in experiment [5] is HLA-B*40:01. The description is as above.
The target in experiment [6] is HLA-A*26:01. The experiment is described as above.
The next experiment addresses HLA-B*44:02. The experiment is described as above.
The target of another experiment is HLA-A*69:01. The description is as above.
For the next experiment, the target named is HLA-B*07:02. The description is as above.
In another experiment the target is HLA-A*01:01. The experiment is described as above.
The target in the next experiment is HLA-B*15:01. The experiment is described as above.
Experiment [7] concerns the target HLA-A*03:01. The description is as above.
Experiment [8] deals with HLA-A*24:02. The experiment is described as above. The conditions noted are these: source organism: Rickettsia conorii.
The target in a further experiment is HLA-B*08:01. The experiment is described as above. To be noted: source organism: Rickettsia sibirica 246.
Another experiment concerns the target HLA-A*26:02. Described as above.
The target of experiment [9] is HLA-A*24:02. Kind of experiment: IEDB peptide-MHC binding, purified MHC/competitive/fluorescence; filed as Kd, often an IC50 or EC50 that approximates it; ≥ and ≤ were set here for values at or beyond the usual limits of such assays.
The next experiment concerns the target HLA-B*18:01. The description is as above. The conditions noted are these: source organism: Toxoplasma gondii.
Another experiment concerns the target HLA-A*02:12. The description is as above. The conditions noted are these: source organism: Toxoplasma gondii.
The target of experiment [10] is HLA-A*31:01. The experiment is described as above. The conditions noted are these: source organism: Toxoplasma gondii.
Experiment [11] deals with HLA-B*39:01. Described as above. To be noted: source organism: Toxoplasma gondii.
The next experiment has as its target HLA-B*27:03. The experiment is described as above. The conditions noted are these: source organism: Toxoplasma gondii.
For experiment [12], the target named is HLA-A*26:01. The experiment is described as above. To be noted: source organism: Toxoplasma gondii.
In another experiment the target is HLA-A*02:19. The description is as above. The conditions noted are these: source organism: Toxoplasma gondii.
The target in experiment [13] is HLA-A*03:01. Described as above. To be noted: source organism: Toxoplasma gondii.
In the next experiment the target is HLA-C*14:02. Description: IEDB peptide-MHC binding, purified MHC/direct/fluorescence; filed as Kd, often an IC50 or EC50 that approximates it; ≥ and ≤ were set here for values at or beyond the usual limits of such assays.
For a further experiment, the target named is HLA-C*06:02. The experiment is described as above. The conditions noted are these: source organism: Toxoplasma gondii.
Another experiment concerns the target HLA-C*15:02. Described as above.
For a further experiment, the target named is HLA-C*07:02. The experiment is described as above.
In the next experiment the target is HLA-B*15:09. Described as above.
Another experiment addresses HLA-B*57:01. The description is as above. To be noted: source organism: Lassa virus Josiah.
For the next experiment, the target named is HLA-B*48:01. The experiment is described as above. The conditions noted are these: source organism: Lassa virus Josiah.
The next experiment deals with HLA-B*46:01. The description is as above. To be noted: source organism: Lassa virus Josiah.
Experiment [14] concerns the target HLA-B*39:01. The description is as above.
Setting [15] is: source organism: Rickettsia conorii.
Setting [16] is: source organism: Vibrio cholerae V52.
Setting [17] is: source organism: Toxoplasma gondii.
[18] abbreviates: source organism: Influenza A virus (A/Harbin/1/1988(H1N2)).
Where [19] appears, read: source organism: Vibrio vulnificus YJ016.
The mark [20] stands for this setting: source organism: Lassa virus Josiah.

Bounds are passed on as bounds.

Regarding AREIRDQGY, the Kd (in general, a measure of binding affinity in units of concentration) with HLA-B*27:05 [1] (source organism: Escherichia coli 536) was not below 20000 nM.
For the sequence LEALSPPLL, the Kd in the experiment with HLA-B*40:01 [2] (source organism: Escherichia coli E22) is 5.5 nM.
In the case of SSSGMDAYY, the Kd with HLA-B*58:01 (setting [15]) is 216 nM; in the experiment with HLA-B*27:05 [3] (setting [15]) it was not below 20000 nM; in the experiment with HLA-B*08:02, not below 20000 nM; with HLA-A*02:01 (setting [15]), not below 20000 nM; in the experiment with HLA-A*31:01 [4] (setting [15]), not below 20000 nM; in the experiment with HLA-B*40:01 [5] (setting [15]) it was not below 20000 nM. Besides, the Kd is 124 nM with HLA-A*26:01 [6] (source organism: Rickettsia sibirica 246); not below 20000 nM with HLA-B*44:02 (setting [15]); not below 20000 nM in the experiment with HLA-A*69:01 (setting [15]); not below 20000 nM in the experiment with HLA-B*07:02 (setting [15]); 69.2 nM in the experiment with HLA-A*01:01 (setting [15]); 159 nM in the experiment with HLA-B*15:01 (setting [15]). Further, the Kd with HLA-A*03:01 [7] (setting [15]), with HLA-A*24:02 [8] and with HLA-B*08:01 was not below 20000 nM throughout.
On to DIIWHLNDL, for which the Kd came to 3 nM in the experiment with HLA-A*26:02 (setting [16]) and 479 nM in the experiment with HLA-A*26:01 [6] (setting [16]).
In turn, RLGKGYMF came in with a Kd with HLA-A*24:02 [9] (source organism: Influenza A virus (A/Fort Monmouth/1/1947-mouse adapted(H1N1))) of 32.6 nM.
For the sequence RTWFYRTEF, the Kd with HLA-B*18:01 is not below 20000 nM; with HLA-A*02:12, not below 20000 nM; with HLA-A*31:01 [10], 26.2 nM; with HLA-B*39:01 [11] it was not below 20000 nM; in the experiment with HLA-B*27:03, not below 20000 nM; with HLA-A*26:01 [12] it was not below 20000 nM. The Kd was not below 20000 nM in the experiment with HLA-A*02:19; not below 20000 nM with HLA-A*03:01 [13]; 153 nM with HLA-C*14:02 (setting [17]); not below 20000 nM in the experiment with HLA-C*06:02; 127 nM with HLA-C*15:02 (setting [17]).
Sequence EVHTWTEQY yielded a Kd with HLA-A*26:02 (source organism: dengue virus type 3) not above 1 nM.
LEVSFGSVI showed a Kd with HLA-B*40:01 [2] (source organism: Salmonella enterica subsp. enterica serovar Typhi) of 3.5 nM.
On to GRINYYWTL, for which the values for the Kd with HLA-B*27:05 [1] (setting [18]) and with HLA-C*07:02 (setting [18]) were 49 nM and 25 nM, respectively.
As to YYGRWVHEF, the Kd with HLA-A*24:02 [9] (setting [19]) is not above 0.1 nM; with HLA-C*14:02 (setting [19]), 25 nM; with HLA-C*07:02 (setting [19]) it was 46 nM; with HLA-C*15:02 (setting [19]) it was not below 20000 nM.
In the case of NHYLCLNCL, the Kd was 431 nM with HLA-B*15:09 (source organism: Mammarenavirus lassaense); not below 20000 nM with HLA-B*58:01 (setting [20]); not below 20000 nM in the experiment with HLA-B*27:05 [3] (setting [20]); not below 20000 nM with HLA-B*57:01; not below 20000 nM in the experiment with HLA-B*48:01; not below 20000 nM with HLA-B*46:01. Also, the Kd with HLA-A*02:01 (setting [20]) is not below 20000 nM; with HLA-A*31:01 [4] (setting [20]), not below 20000 nM; with HLA-B*39:01 [14] (setting [20]), 26 nM; with HLA-B*40:01 [5] (setting [20]), not below 20000 nM; in the experiment with HLA-B*44:02 (setting [20]) it was not below 20000 nM; in the experiment with HLA-A*69:01 (setting [20]), not below 20000 nM. Moreover, the Kd with HLA-B*07:02 (setting [20]), in the experiment with HLA-A*01:01 (setting [20]), with HLA-B*15:01 (setting [20]) and in the experiment with HLA-A*03:01 [7] (setting [20]) was not below 20000 nM each time.
For TRVTNNVYL, the values for the Kd with HLA-B*15:09 (source organism: Variola virus) and with HLA-B*39:01 [14] (source organism: Camelpox virus M-96) were 4060 nM and 19.8 nM, respectively.
In the experiment with HLA-B*40:01 [2] (source organism: Escherichia coli B7A), GEINGEHVP gave a Kd of 87.8 nM.
